Test results taken from EP2330125A2.

What follows are substances tested against CGRP receptor (Homo sapiens (Human)) (UniProt Q16602) (assay: 125I-hCGRP displacement, SK-N-MC membranes).

Receptor Binding | Substance
4.4 | 27(p-CH2SO3)-PheCCK8(26-33),G,K,R,15Glu,hAmy(1-17),18Arg,sCT(18-26),hAmy(32-37) (peptide)
21 | Rat amylin (peptide)

The substances below were run against neuropeptide Y2 receptor (UniProt P49146) (assay: [125I]-human PYY displacement, SK-N-BE membranes).
neuropeptide Y2 receptor, sequence (P49146 whole entry): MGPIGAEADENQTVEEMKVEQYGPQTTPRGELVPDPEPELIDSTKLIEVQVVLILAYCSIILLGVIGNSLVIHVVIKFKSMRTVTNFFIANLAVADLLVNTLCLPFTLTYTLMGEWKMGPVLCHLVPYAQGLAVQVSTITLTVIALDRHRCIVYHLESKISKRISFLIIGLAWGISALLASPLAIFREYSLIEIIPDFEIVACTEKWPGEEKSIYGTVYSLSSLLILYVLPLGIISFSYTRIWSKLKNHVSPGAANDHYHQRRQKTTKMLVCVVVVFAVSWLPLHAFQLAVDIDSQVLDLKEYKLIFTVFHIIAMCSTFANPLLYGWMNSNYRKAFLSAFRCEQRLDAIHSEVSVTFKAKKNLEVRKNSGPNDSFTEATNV

Substance | Receptor Binding
[#Cys-Gly-Gly-PYY (3-36), amide] [Asp(#)-Pro-Pro-Pro-Pro-Pro-Pro-PYY (3-36), amide] (peptide) | 0.8
[#Cys-Gly-Gly-PYY (3-36), amide] [Asp(#)-miniPEG3-Gly-PYY (3-36), amide] (peptide) | 0.8
[#Des-Lys1 Compound 10, amide] (Asp(#)-Pro-Pro-Pro-Pro-Pro-Pro-PYY (3-36), amide (peptide) | 0.5
[#NH-Cys-(bAla)-PYY-(3-36), amide] [#Suc-(bAla)-PYY-(3-36), amide] (peptide) | 1.2

More lines, now with the values ahead:

Receptor Binding | Substance
0.2 | Human NPY (peptide)
0.39 | [#Suc-(bAla)-PYY-(3-36), amide] [#NH-Des-Lys1-Rat Amylin, amide] (peptide)
0.2 | [Ac-alpha-MSH-bAla-bAla-PYY-(3-36); amide] (peptide)
0.8 | [Asp(#)-miniPEG-Gly-PYY (3-36), amide] [#Cys-Gly-Gly-PYY (3-36), amide] (peptide)

What follows are substances tested against calcitonin receptor (assay: calcitonin receptor binding assay).
calcitonin receptor, sequence (P30988 whole entry): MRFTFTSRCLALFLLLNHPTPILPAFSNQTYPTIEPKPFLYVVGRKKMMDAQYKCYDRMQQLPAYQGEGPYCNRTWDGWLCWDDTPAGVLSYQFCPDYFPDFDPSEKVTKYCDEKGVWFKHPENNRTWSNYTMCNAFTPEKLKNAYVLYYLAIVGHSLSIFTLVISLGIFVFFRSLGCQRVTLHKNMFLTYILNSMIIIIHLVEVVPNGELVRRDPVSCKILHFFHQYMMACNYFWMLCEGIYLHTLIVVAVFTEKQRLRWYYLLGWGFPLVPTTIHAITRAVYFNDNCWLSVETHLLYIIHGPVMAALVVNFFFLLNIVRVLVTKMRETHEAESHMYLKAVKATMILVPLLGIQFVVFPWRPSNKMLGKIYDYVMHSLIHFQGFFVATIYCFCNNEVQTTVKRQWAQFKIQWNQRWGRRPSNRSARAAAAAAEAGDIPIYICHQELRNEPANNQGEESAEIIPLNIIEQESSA

Receptor Binding | Substance
643 | [#NH-Cys-(bAla)-PYY-(3-36), amide] [#Suc-(bAla)-PYY-(3-36), amide] (peptide; modification not given)

Each substance was assayed against calcitonin receptor (assay: cell-based or functional assay).

CT cyclase | Substance
2270 | [#NH-Cys-(bAla)-PYY-(3-36), amide] [#Suc-(bAla)-PYY-(3-36), amide] (peptide; modification not given)
